From patent US20140065670A1

Key:
[1] = target: CEA (carcinoembryonic antigen) (UniProt P06731); assay: competitive ELISA on CEA, competitor anti-CEA monoclonal antibody; bsctDb as culture supernatant
lysozyme (antigen) = lysozyme (antigen) (UniProt P00698); assay: competitive ELISA on lysozyme, competitor anti-lysozyme Fab antibody fragment; bsctDb as culture supernatant

## D1.3-A5B7 bispecific single chain tetravalent diabody (bispecific antibody)
[1]
  % Inhibition in CEA Competition ELISA: 100%
Lysozyme (antigen)
  % Inhibition in D1.3 Competition ELISA: 100%
